Test results as given in US20260144862A1, “MATERIALS AND METHODS TO TREAT EPSTEIN-BARR VIRUS (EBV) AND EBV-INDUCED DISEASES” (Medizinische Universität Wien, priority 2022, published 2026).

These sequences were tested on HLA-E (assay: HLA-E stabilization assay on peptide-pulsed K562-HLA-E cells). Details: K562-HLA-E*0103/0103 or K562-HLA-E*0101/0101 cells, 300 μM peptide, 16 h, flow-cytometry.
Protocol: HLA-E surface stabilization was induced as previously described^32. In brief, TAP-incompetent K562-HLA-E*0101/0101 and K562-HLA-E*0103/0103 (kindly provided by Thorbald van Hall, Leiden University Medical Center) were cultured in Iscove's Modified Dulbecco's Medium (IMDM)+10% FCS (both: Thermo-Scientific). […] (positive control), BZLF1-derived [sequence] or LMP-1 peptides (Peptides&Elephants) in 1 ml Opti-MEM (Thermo-Fisher) for 16 h at 37° C. Peptide-pulsed cells were either stained for HLA-E surface expression by flow-cytometry analysis or washed with complete medium and used for in vitro stimulations.
The following conjugated mouse anti-human mAB were used for flow-cytometry: BV421-CD56 (NCAM 16.2), BV421-CD8 (RPA-T8), BV510-NKG2A (131411), APC/H7-CD107a (H4A3), APC/CD21 (all: BD), APC-CD3 (UCHT1), APC/Cy7-IFNγ (B27), APC-HLA/E (all: Biolegend), APC-Cy7-Granzyme B (Abcore), BZLF1-Alexa488 (Novusbio). Dead cells were identified using LIVE/DEAD Fixable Green Dead Cell Stain Kit (Thermo-Scientific) or 7-Aminoactinomycin D (7-AAD, Invitrogen). Flow-cytometry analysis was performed on a FACSCanto2 platform and FACSDiva Version 10.7.2 (BD).
In the case of GGDPHLPPL [EBV LMP-1 peptide variant], the “HLA-E upregulation / stabilization (surface expression of HLA-E)” value is reported as “neither significant HLA-E upregulation”. GSDPHLPTL [EBV LMP-1 peptide variant] was tested, and the “HLA-E upregulation / stabilization (surface expression of HLA-E)” value was “neither significant HLA-E upregulation”.

These sequences were tested on HLA-E (assay: LMP-1 dependent HLA-E up-regulation assay in GlialCAM370-389-specific B-cells). Details: B-cells from 24 healthy blood donors transfected with LMP-1 peptide, 16 h.
Format: cell-based, human
Protocol: For the HLA-E stabilization experiments, 5×10^6 viable CFSE stained PBMCs were cultured in RPMI-1640+10% FCS in the presence of 10 μg GlialCAM370-389 ([…]), 10 μg of random 20 amino acid peptides (negative control, GenScript) or without peptides (non-peptide control) and 10 ng/mL IL-2 (Peprotech) at 37° C. Every three days, fresh 10 μg GlialCAM370-389 and 10 ng/mL IL-2 were added. After 7 days of co-culture, GlialCAM370-389-specific B-cells were sorted. 1×10^5 GlialCAM370-389-specific B-cells were then individually transfected with the indicated concentrations of the LMP-1 peptides (Peptides&Elephants) using the Pierce Protein Transfection Reagent according to the manufacturer's instructions (Thermo Fisher). After 16 h, the cells were either fixed and analyzed for HLA-E expression by flow cytometry, as described below, or washed once with Opti-MEM I Reduced Serum Medium (Gibco) and subsequently used in NKG2A^+ NK cell inhibition experiments. For the NKG2A^+ NK cell inhibition experiments, sorted NKG2A^+NKG2C^−NKG2D^− NK cells from 24 healthy blood donors were cultured together with peptide-pulsed GlialCAM370-389 B-cells (E:T, 1:1) for 6 h at 37° C. After co-cultivation, the supernatant was removed, cleared by centrifugation (1000×g, 5 min), and analyzed using IFNγ ELISA according to the manufacturer's recommendations (Thermo Fisher).
For “GTDPHLPTL [only rarely detected EBV LMP-1 peptide variant]”, the “upregulation of HLA-E on the surface of GlialCAM370-389-specific B-cells” value was “stable upregulation of HLA-E”.

These sequences were tested against T1, HLA-E (Homo sapiens, UniProt P13747) (assay: HLA-E stabilization by UL40 peptides on HLA-E-expressing RMA-S cells). Details: HLA-E binding class of UL40 variant.
T1 construct: expressed in transfected cells; host or cells: mouse lymphoma cell line RMA-S/HLA-E/LFA-3, a gift from Chiara Romagnani, DRFZ Berlin
T1 sequence (P61769 21-119): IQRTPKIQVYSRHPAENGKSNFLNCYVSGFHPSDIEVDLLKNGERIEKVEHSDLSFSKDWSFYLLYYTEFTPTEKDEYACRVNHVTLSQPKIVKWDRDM
T1 sequence (P13747 22-358): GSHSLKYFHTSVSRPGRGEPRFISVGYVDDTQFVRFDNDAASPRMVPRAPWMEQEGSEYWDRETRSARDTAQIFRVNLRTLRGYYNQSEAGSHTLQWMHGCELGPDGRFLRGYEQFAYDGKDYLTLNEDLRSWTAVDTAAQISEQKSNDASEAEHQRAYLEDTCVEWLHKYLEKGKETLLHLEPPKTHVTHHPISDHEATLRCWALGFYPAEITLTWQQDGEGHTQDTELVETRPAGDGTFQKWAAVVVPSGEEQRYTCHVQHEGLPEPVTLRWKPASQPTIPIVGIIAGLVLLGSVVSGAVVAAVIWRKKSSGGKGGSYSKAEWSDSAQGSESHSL
Format: cell-based
Source text: Functionally, the expansion of NKG2C^+ NK cells in response to HCMV infections depends on a highly polymorphic HCMV UL40-encoded peptide in the respective infecting HCMV variant, which upregulates the NKG2C ligand HLA-E on the surface of HCMV-infected cells^52. […] HCMV variants were obtained from all 145 HCMV-seropositive MS patients during an episode of HCMV reactivation between EBV seroconversion and MS diagnosis, as well as from all HCMV seropositive EBNA^high (N=80) and EBNA^low (N=85) controls in any of the serum samples collected from the individuals over time. […] Therefore, we incubated HLA-E-expressing RMA-S cells with each of the 18 UL40 peptides and measured HLA-E expression on the cell surface.
For GMAPRTLLL [HCMV UL40 peptide variant], the Interpretation was “Low Binding (↑)”. VIAPRTLIL [HCMV UL40 peptide variant] was tested, and the Interpretation was “Low Binding (↑)”. With VLAPRTLLL [HCMV UL40 peptide variant] the Interpretation was “Low Binding (↑)”. In the case of VMAPRILIL [HCMV UL40 peptide variant], the Interpretation is reported as “Low Binding (↑)”. For VMAPRILVL [HCMV UL40 peptide variant], the Interpretation was “Low Binding (↑)”. With VMAPRSLIL [HCMV UL40 peptide variant] the Interpretation was “Low Binding (↑)”. In the case of VMAPRSLLL [HCMV UL40 peptide variant], the Interpretation is reported as “Low Binding (↑)”. In the case of VMAPRTLFL [HCMV UL40 peptide variant], the Interpretation is reported as “High Binding (↑↑) (a high-level of HLA-E stabilization, as defined by an HLA-E upregulation of >99.5%)”. In the case of VMAPRTLLL [HCMV UL40 peptide variant], the Interpretation is reported as “High Binding (↑↑) (a high-level of HLA-E stabilization, as defined by an HLA-E upregulation of >99.5%)”. VMAPRTLVL [HCMV UL40 peptide variant] was tested, and the Interpretation was “High Binding (↑↑) (a high-level of HLA-E stabilization, as defined by an HLA-E upregulation of >99.5%)”. For VMAPWTLIL [HCMV UL40 peptide variant], the Interpretation was “Low Binding (↑)”. With VMAPWTLVL [HCMV UL40 peptide variant] the Interpretation was “Low Binding (↑)”. With VMGPRTLIL [HCMV UL40 peptide variant] the Interpretation was “Low Binding (↑)”. In the case of VMTPRTLIL [HCMV UL40 peptide variant], the Interpretation is reported as “Low Binding (↑)”. With VMTPRTLLL [HCMV UL40 peptide variant] the Interpretation was “Low Binding (↑)”. For VMTPRTLVL [HCMV UL40 peptide variant], the Interpretation was “Low Binding (↑)”. With VVAPRTLVL [HCMV UL40 peptide variant] the Interpretation was “Low Binding (↑)”.

Same assay, conditions: HLA-E expression on the cell surface of RMA-S cells incubated with UL40 peptide
For GMAPRTLLL [HCMV UL40 peptide variant], the “Mean MFI” value was 1575. In the case of VIAPRTLIL [HCMV UL40 peptide variant], the “Mean MFI” value is reported as 1541. VLAPRTLLL [HCMV UL40 peptide variant] was tested, and the “Mean MFI” value was 2059. With VMAPRILIL [HCMV UL40 peptide variant] the “Mean MFI” value was 2056. For VMAPRILVL [HCMV UL40 peptide variant], the “Mean MFI” value was 2299. For VMAPRSLIL [HCMV UL40 peptide variant], the “Mean MFI” value was 2074. In the case of VMAPRSLLL [HCMV UL40 peptide variant], the “Mean MFI” value is reported as 2351. In the case of VMAPRTLFL [HCMV UL40 peptide variant], the “Mean MFI” value is reported as 3797. In the case of VMAPRTLLL [HCMV UL40 peptide variant], the “Mean MFI” value is reported as 3776. For VMAPRTLVL [HCMV UL40 peptide variant], the “Mean MFI” value was 3782. In the case of VMAPWTLIL [HCMV UL40 peptide variant], the “Mean MFI” value is reported as 1210. In the case of VMAPWTLVL [HCMV UL40 peptide variant], the “Mean MFI” value is reported as 1503. With VMGPRTLIL [HCMV UL40 peptide variant] the “Mean MFI” value was 1858. For VMTPRTLIL [HCMV UL40 peptide variant], the “Mean MFI” value was 2633. In the case of VMTPRTLLL [HCMV UL40 peptide variant], the “Mean MFI” value is reported as 2519. In the case of VMTPRTLVL [HCMV UL40 peptide variant], the “Mean MFI” value is reported as 2488. VVAPRTLVL [HCMV UL40 peptide variant] was tested, and the “Mean MFI” value was 1840.

Same assay, conditions: HLA-E-expressing RMA-S cells incubated with UL40 peptide
GMAPRTLLL [HCMV UL40 peptide variant] was tested, and the “HLA-E Upregulation” value was 41.5%. In the case of VIAPRTLIL [HCMV UL40 peptide variant], the “HLA-E Upregulation” value is reported as 40.6%. VLAPRTLLL [HCMV UL40 peptide variant] was tested, and the “HLA-E Upregulation” value was 54.2%. With VMAPRILIL [HCMV UL40 peptide variant] the “HLA-E Upregulation” value was 54.2%. In the case of VMAPRILVL [HCMV UL40 peptide variant], the “HLA-E Upregulation” value is reported as 60.5%. In the case of VMAPRSLIL [HCMV UL40 peptide variant], the “HLA-E Upregulation” value is reported as 54.6%. With VMAPRSLLL [HCMV UL40 peptide variant] the “HLA-E Upregulation” value was 61.9%. With VMAPRTLFL [HCMV UL40 peptide variant] the “HLA-E Upregulation” value was 100.0%. With VMAPRTLLL [HCMV UL40 peptide variant] the “HLA-E Upregulation” value was 99.5%. In the case of VMAPWTLIL [HCMV UL40 peptide variant], the “HLA-E Upregulation” value is reported as 31.9%. In the case of VMAPWTLVL [HCMV UL40 peptide variant], the “HLA-E Upregulation” value is reported as 39.6%. In the case of VMGPRTLIL [HCMV UL40 peptide variant], the “HLA-E Upregulation” value is reported as 48.9%. With VMTPRTLIL [HCMV UL40 peptide variant] the “HLA-E Upregulation” value was 69.3%. With VMTPRTLLL [HCMV UL40 peptide variant] the “HLA-E Upregulation” value was 66.3%. With VMTPRTLVL [HCMV UL40 peptide variant] the “HLA-E Upregulation” value was 65.5%. VVAPRTLVL [HCMV UL40 peptide variant] was tested, and the “HLA-E Upregulation” value was 48.5%.

The sequences below were run on EBV B95-8 isolate (assay: Virus (EBV) dissemination assay in K562-CR2-HLA-E cells). Details: 300 μM LMP-1 peptide, 2-14 days of co-culture.
Format: cell-based, Epstein-Barr virus
Protocol: For the virus dissemination assays, the marmoset B-lymphoblastoid cell line B95-8 was cultured in RPM1 1640 medium supplemented with 20 mM glutamine, 50 µg/ml gentamicin, 0.2 µg/ml amphotericin B and 10% FCS (Thermo-Scientific). Cells were then cultured in the presence of […] (Biomol) for two weeks. EBV was harvested from the supernatant and enriched by ultracentrifugation (30000 U/min, 90 min, 10° C.). The virus stocks were stored at −80° C. in RPMI 1640 medium+10% FCS+10% DMSO (all: Thermo-Scientific). The multiplicity of infection (MOI) of the viral stocks was determined on K562-CR2-HLA-E*0101/0101 and K562-CR2-HLA-E*0103/0103 cells by flow-cytometry.
RMA-S/HLA-E/LFA-3 cells (kindly provided by Chiara Romagnani, DRFZ, Berlin) were maintained in RPMI-1640+20 mM glutamine+10% FCS+20 μM β-mercaptoethanol+100 U/ml penicillin-streptomycin (all Thermo Fisher)+400 μg/ml hygromycin B+1 mg/ml G418 (both InvivoGen). 2×10^6 RMA-S/LFA3/HLA-E cells were incubated for 16 h at 37° C., 5% CO2, with 300 μM of respective peptides (Peptides&Elephants) in 1 ml serum-free OptiMEM (Thermo-Fisher). Cells were afterwards inactivated using 20 μg/mL Mitomycin C (Sigma Aldrich) at 37° C. for 30 minutes. Peptide pulsed RMA-S/LFA3/HLA-E cells were co-cultured with […] CFSE (Thermo-Fisher) stained CD56^+ or CD8^+ MACS-enriched cells for 7 days in RPMI+10% FCS. Proliferating (CFSE^low) NKG2A^+CD56^+ NK cells, NKG2A^+ CD8^+ T cells or […]-specific, HLA-E-restricted NKG2A^+ or NKG2A^− T cells were then sorted by FACS as described below.
Fresh K562-CR2-HLA-E*0101/0101 and K562-CR2-HLA-E*0103/0103 cells were then inactivated using 20 μg/mL Mitomycin C at 37° C. for 30 minutes and then infected with the EBV B95-8 isolate (MOI=1) for 24 h. The infected cells were then co-cultured together with the sorted NKG2A^+ CD56^+ NK cells, NKG2A^+ CD8^+ T cells or […]-specific, HLA-E-restricted NKG2A^+ or NKG2A^− T cells (E:T, 1:2). In some experiments, 300 μM of respective peptides was also added. At indicated time points, the cells were harvested and analyzed by flow-cytometry, as described below.
With GGDPHLPPL [EBV LMP-1 peptide variant] the “viral spread (BZLF1+ K562-CR2-HLA-E cells); effect of peptide on NKG2A+ NK or NKG2A+ CD8+ T cell mediated prevention of the viral spread” value (“viral spread” below) was “no inhibitory effect”. With GSDPHLPTL [EBV LMP-1 peptide variant] the “viral spread” value was “no inhibitory effect”. “GTDPHLPTL [only rarely detected EBV LMP-1 peptide variant]” was tested, and the “viral spread” value was “increased viral spread”.

Same assay, conditions: peptide-pulsed K562-CR2-HLA-E*0103/0103 and K562-CR2-HLA-E*0101/0101 cells, sorted NKG2A+ CD8+ T cells
In the case of “GTDPHLPTL [only rarely detected EBV LMP-1 peptide variant]”, the “inhibition of NKG2A+ CD8+ T cells in EBV-dissemination assay (granzyme B-expressing cells)” value is reported as “caused the inhibition”.

Same assay, conditions: peptide-pulsed K562-CR2-HLA-E*0103/0103 and K562-CR2-HLA-E*0101/0101 cells, sorted NKG2A+ NK cells
For “GTDPHLPTL [only rarely detected EBV LMP-1 peptide variant]”, the “inhibition of NKG2A+ NK cells in EBV-dissemination assay (granzyme B-expressing cells)” value was “caused the inhibition”.

The sequences below were run on NKG2C+ NK cells (assay: NKG2C+ NK cell response elicited by UL40 peptides). Details: UL40 peptide variant encoded by infecting HCMV isolate.
Set-up: species or system human
In the case of VMAPRTLFL [HCMV UL40 peptide variant], the “NKG2C+ NK cell response” value is reported as “more potent NKG2C^+ NK cell response”. With VMAPRTLLL [HCMV UL40 peptide variant] the “NKG2C+ NK cell response” value was “more potent NKG2C^+ NK cell response”. With VMAPRTLVL [HCMV UL40 peptide variant] the “NKG2C+ NK cell response” value was “more potent NKG2C^+ NK cell response”.
